Test results from patent publication US20230310629A1 (Merck KGaA, published 2023).

Target: T1, MUC1 on WISH cells (human, UniProt P15941 24-1255)
T1 construct: whole, on cells; WISH cells also carry low levels of EGFR; also called MUC1-expressing cells (WISH)
Test: cell binding on WISH cells

B1: 1993-H02 with an HT186-D11 light chain (anti-MUC1 antibody H02) (antibody, V domains shown)
VH: QMQLVQSEAELKKPGASVKVSCKASGYSFTSHFMHWVRQAPGQGLEWMGWIDPVTGGTKYAQNFQGWVTMTRDTSIRTAYLELSRLRSDDTAMYYCAREARADRGQFDKWGQGTLVTVAS
VL: QSVLTQPPSVSVAPGKTARITCGGNNIGSKSVHWYQQKPGQAPALVIYYGSNRPSGIPERFSGSNSGNTATLTISRVEAGDEADYYCQVWDSSSDWVFGGGTKLTVL
notes: One molecule is used here for both experiments
- Kd: 23.9 nM
